From paper PMC13623949

How the values were obtained:
[1] = biological target: H2A.Z-containing nucleosome (H. sapiens histone octamer, H2B labeled with ATTO643) assembled on lambda-DNA (H. sapiens) (UniProt P0C0S5); test: single-molecule DNA curtains (TIRF; two-colour co-localization); ATTO643-labeled H2A.Z nucleosomes on sparsely chromatinized double-tethered lambda-DNA, washed with 350 mM NaCl; LD555-INO80 flushed in, flow stopped; DNA curtains buffer with 1 mM ATP
[2] = biological target: S. cerevisiae wild-type INO80 complex, labeled with LD555 (S. cerevisiae) (UniProt P53115); test: single-molecule DNA curtains (TIRF; fluorescence intensity and photobleaching steps); LD555-labeled INO80 on double-tethered lambda-DNA; 20 mM HEPES pH 8.0, 1 mg/mL BSA, 4 mM Mg(OAc)2, 1 mM ATP, 1 mM DTT, 120 mM KGlu; 125 to 250 pM INO80 injected

| co-localization time, second population (short associations) [1] [s] | co-localization time, third population (extremely long-lived co-localizations) [1] [s] | median interaction (co-localization) time [1] [s] | percent of DNA-bound complexes that are dimers [2] [%] | stoichiometry N [2] | Substance |
| --- | --- | --- | --- | --- | --- |
| 16.6 | 1200 | 15.3 |  |  | S. cerevisiae wild-type INO80 complex, labeled with LD555 (from UniProt P53115 1-1489; Q03940 1-463; Q12464 1-471; P53946 1-755; P32617 1-166; P60010 1-375; P80428 1-489; Q12386 1-881; P35189 1-244; P40154 1-320; Q08561 1-116; P43579 1-692; Q12345 1-250; P40060 1-125; Q03435 1-203) |
|  |  |  | 11 | 2 | S. cerevisiae wild-type INO80 complex, labeled with LD555 (from UniProt P53115 1-1489; Q03940 1-463; Q12464 1-471; P53946 1-755; P32617 1-166; P60010 1-375; P80428 1-489; Q12386 1-881; P35189 1-244; P40154 1-320; Q08561 1-116; P43579 1-692; Q12345 1-250; P40060 1-125; Q03435 1-203) (complex; LD555 on the ybbR-tag (Sfp with LD555-CoA); LD555 on the ybbR-tag (Sfp with LD555-CoA)) |
